In article PMC5391180 one finds dwell time tau, high-FRET state, bleb cortex, shorter average dwell time tau1, high-FRET state, cell cortex and longer average dwell time tau2, high-FRET state, cell cortex data, which are given here for three substances.

The assay concerns the target actin filaments of MCF-7 cells, marked by Lifeact-RFP (human (endogenous in MCF-7)) (UniProt P60709). The assay can be described thus: FRET or BRET.

Sequence of GFP-tagged nonmuscle myosin IIC1 (alternatively spliced isoform of nonmuscle myosin heavy chain IIC) (natural protein) (Q7Z406 2-1995): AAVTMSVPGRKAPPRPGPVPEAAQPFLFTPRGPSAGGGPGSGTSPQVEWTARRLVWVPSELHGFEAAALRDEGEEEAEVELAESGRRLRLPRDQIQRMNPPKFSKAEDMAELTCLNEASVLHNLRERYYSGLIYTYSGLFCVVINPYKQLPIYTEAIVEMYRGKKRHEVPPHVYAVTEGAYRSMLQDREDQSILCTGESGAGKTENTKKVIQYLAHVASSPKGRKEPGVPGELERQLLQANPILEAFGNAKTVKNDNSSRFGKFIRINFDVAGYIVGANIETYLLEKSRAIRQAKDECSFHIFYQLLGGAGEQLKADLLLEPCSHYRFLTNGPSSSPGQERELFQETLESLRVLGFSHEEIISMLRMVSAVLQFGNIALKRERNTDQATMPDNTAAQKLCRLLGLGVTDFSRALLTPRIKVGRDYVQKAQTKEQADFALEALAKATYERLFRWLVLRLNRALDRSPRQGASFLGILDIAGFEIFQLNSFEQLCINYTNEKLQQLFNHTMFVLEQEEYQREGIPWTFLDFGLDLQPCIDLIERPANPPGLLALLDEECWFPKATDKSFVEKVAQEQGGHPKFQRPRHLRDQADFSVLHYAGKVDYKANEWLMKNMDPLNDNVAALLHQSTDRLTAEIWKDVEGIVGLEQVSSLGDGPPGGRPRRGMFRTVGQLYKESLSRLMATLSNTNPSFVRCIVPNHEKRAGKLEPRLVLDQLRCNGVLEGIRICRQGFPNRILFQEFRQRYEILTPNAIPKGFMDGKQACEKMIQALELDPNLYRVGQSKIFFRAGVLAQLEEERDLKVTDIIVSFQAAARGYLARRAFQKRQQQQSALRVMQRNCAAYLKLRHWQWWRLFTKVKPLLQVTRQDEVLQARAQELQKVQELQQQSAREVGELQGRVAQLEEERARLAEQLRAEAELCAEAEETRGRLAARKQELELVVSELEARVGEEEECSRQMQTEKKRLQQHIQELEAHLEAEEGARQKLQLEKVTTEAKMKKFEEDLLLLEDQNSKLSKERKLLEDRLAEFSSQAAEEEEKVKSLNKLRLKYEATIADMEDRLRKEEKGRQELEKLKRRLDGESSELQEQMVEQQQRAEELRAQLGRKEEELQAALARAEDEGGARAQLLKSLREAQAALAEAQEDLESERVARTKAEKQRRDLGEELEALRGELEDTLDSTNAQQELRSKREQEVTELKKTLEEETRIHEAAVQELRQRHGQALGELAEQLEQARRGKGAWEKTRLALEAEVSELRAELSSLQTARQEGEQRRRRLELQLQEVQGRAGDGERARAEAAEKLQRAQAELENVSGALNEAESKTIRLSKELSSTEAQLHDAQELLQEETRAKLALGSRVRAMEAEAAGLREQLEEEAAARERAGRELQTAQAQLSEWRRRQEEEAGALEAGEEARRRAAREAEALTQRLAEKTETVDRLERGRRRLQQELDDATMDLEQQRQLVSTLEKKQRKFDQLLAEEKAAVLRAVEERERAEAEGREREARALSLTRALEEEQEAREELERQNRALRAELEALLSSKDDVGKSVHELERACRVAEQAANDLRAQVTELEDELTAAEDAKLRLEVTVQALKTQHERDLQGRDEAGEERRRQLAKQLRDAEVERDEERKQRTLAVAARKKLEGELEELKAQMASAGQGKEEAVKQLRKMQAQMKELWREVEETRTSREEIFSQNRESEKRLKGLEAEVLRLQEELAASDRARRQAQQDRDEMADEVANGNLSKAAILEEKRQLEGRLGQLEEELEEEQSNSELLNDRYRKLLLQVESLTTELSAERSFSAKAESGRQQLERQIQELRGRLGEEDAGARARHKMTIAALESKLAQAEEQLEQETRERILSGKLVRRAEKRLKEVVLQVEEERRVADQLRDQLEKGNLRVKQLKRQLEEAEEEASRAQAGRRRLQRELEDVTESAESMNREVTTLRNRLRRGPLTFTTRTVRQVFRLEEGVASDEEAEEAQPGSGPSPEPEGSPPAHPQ

Substance “GFP-tagged nonmuscle myosin IIA (nonmuscle myosin heavy chain IIA, NMHC-IIA) (from UniProt P35579 1-1960) (natural protein)” displayed a dwell time tau, high-FRET state, bleb cortex of 46 s and a shorter average dwell time tau1, high-FRET state, cell cortex of 33 s.

For “GFP-tagged nonmuscle myosin IIC1 (alternatively spliced isoform of nonmuscle myosin heavy chain IIC) (natural protein)”, the shorter average dwell time tau1, high-FRET state, cell cortex turned out to be 35 s.

“GFP-tagged nonmuscle myosin IIB (nonmuscle myosin heavy chain IIB, NMHC-IIB) (from UniProt P35580 1-1976) (natural protein)” showed a dwell time tau, high-FRET state, bleb cortex of 93 s; a longer average dwell time tau2, high-FRET state, cell cortex of 110 s; a shorter average dwell time tau1, high-FRET state, cell cortex of 35 s.
